Laboratory results as given in publication PMC2112137.
Each block holds one substance with its values, some of them ahead of it.

How the values were obtained:
[1] = molecular target: rabbit skeletal muscle F-actin (rabbit) (UniProt P68135); test: co-sedimentation
[2] = molecular target: plasmodial actin of Physarum polycephalum (pure plasmodial F-actin) (Physarum polycephalum); test: co-sedimentation
[3] = molecular target: plasmodial actin of Physarum polycephalum (pure plasmodial F-actin) (Physarum polycephalum); test: light scattering
[4] = molecular target: F-actin-36,000-dalton factor complex (rabbit skeletal F-actin plus Physarum 36,000-dalton factor) (rabbit | Physarum polycephalum) (UniProt P68135); test: co-sedimentation

Substance: 36,000-dalton factor (novel 36,000-dalton actin-binding protein from Physarum plasmodia) (natural protein)
factor/actin weight ratio in the pellet (g/g (factor/actin)) [1]: 0.12 | stoichiometry N (mol actin per mol 36,000-dalton factor) [1]: 6.6

Substance: heavy meromyosin (HMM) of rabbit skeletal muscle myosin (complex)
Actin/HMM binding ratio [2]: 0.192 g/g | stoichiometry N (mol actin per mol HMM) [2]: 2 | HMM bound by 0.1 mg/ml F-actin (untreated actin) [3]: 0.362 mg/mL | stoichiometry N (mol actin monomer per mol HMM) [3]: 2

Bound TN (%) [4]: 25.8%
Substance: rabbit skeletal muscle troponin (complex)
